# Laboratory results: US20260250381A1
# Changes are numbered by the printed parent chain.
# T1: human TREM2 (human) (UniProt Q9NZC2)
# T1 sequence (looked up): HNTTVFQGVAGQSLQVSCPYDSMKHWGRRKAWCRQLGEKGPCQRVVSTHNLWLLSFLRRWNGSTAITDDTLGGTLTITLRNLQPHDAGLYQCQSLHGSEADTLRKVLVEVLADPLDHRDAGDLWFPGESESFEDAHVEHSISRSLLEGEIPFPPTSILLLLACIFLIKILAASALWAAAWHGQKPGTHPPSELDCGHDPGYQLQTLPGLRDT
# B1: 6E7 variant V65 (antibody, V domains shown)
# VH: EVQLVQSGAEVKKPGESLKISCKGSGYSFTSYWIAWVRQMPGKGLEWMGIIYPGDSDTRYSPSFQGQVTISADKSISTAYLQWSSLKASDTAMYFCARSRTFYYDSSDYFDYWGQGTLVTVSS
# VL: DIQMTQSPSSVSASVGDRVTITCRASQGISSWLAWYQQKPGKAPKLLIYAASSLQNGVPSRFSGSGSGTDFTLTISSLQPEDFATYFCQQADSFPRTFGQGTKLEIK
# B2: 6E7 variant V73 (antibody, V domains shown)
# VH: B1 VH with T30G, S63G, S99G
# VL: B1 VL with L54R, F94Y
# B3: 6E7 variant V2 (antibody, V domains shown)
# VH: B1 VH with Y27S, S56G
# VL: B1 VL with L54R, S93R
# B4: 6E7 variant V74 (antibody, V domains shown)
# VH: B1 VH with T30A, T58V, S99G
# VL: B1 VL with N56L
# B5: 6E7 variant V75 (antibody, V domains shown)
# VH: B1 VH with S99G
# VL: B1 VL with N56A, F94Y
# B6: 6E7 variant V76 (antibody, V domains shown)
# VH: B1 VH with T30G, S63E, S99Q, F110S
# VL: B1 VL with N56K, T69R
# B7: 6E7 variant V77 (antibody, V domains shown)
# VH: B1 VH with S99Q
# VL: B1 VL with L54R
# B8: 6E7 variant V84 (antibody, V domains shown)
# VH: B1 VH with S28G, S99Q, F110S
# VL: B1 VL with A50G
# B9: 6E7 variant V85 (antibody, V domains shown)
# VH: B1 VH with T30R, I50T
# VL: B1 VL with L54R
# B10: 6E7 variant V3 (antibody, V domains shown)
# VH: B1 VH with T30A, G66D, S99G
# VL: B1 VL with L54R, S93R
# B11: 6E7 variant V86 (antibody, V domains shown)
# VH: B1 VH with T30G, I34L, Q65E
# VL: B1 VL with L54R
# B12: 6E7 variant V87 (antibody, V domains shown)
# VH: B1 VH with T30R, T58V, S63D
# VL: B1 VL with N56W
# B13: 6E7 variant V88 (antibody, V domains shown)
# VH: B1 VH with T30G, S99Q
# VL: B1 VL with S53R, N56R, F94S
# B14: 6E7 variant V89 (antibody, V domains shown)
# VH: B1 VH with S99Q
# VL: B1 VL with F94H
# B15: 6E7 variant V4 (antibody, V domains shown)
# VH: B1 VH with T30G, Y60V
# VL: B1 VL with S53R, F94Y
# B16: 6E7 variant V5 (antibody, V domains shown)
# VH: B1 VH with I50T, S99Q
# VL: B1 VL with F94H
# B17: 6E7 variant V13 (antibody, V domains shown)
# VH: B1 VH with T30G, P62A, S99G
# VL: B1 VL with N56G, F94M
# B18: 6E7 variant V14 (antibody, V domains shown)
# VH: B1 VH with T30G, S56Q, S99G
# VL: B1 VL with S53R
# B19: 6E7 variant V15 (antibody, V domains shown)
# VH: B1 VH with T30A, I50T
# VL: B1 VL with S53W, F94Y
# B20: 6E7 variant V16 (antibody, V domains shown)
# VH: B1 VH with F29M, S56G
# VL: B1 VL with S53N
# B21: 6E7 variant V17 (antibody, V domains shown)
# VH: B1 VH with T30G
# VL: B1 VL with L54R, F94S
# B22: 6E7 variant V24 (antibody, V domains shown)
# VH: B1 VH with T58V
# VL: B1 VL with N56K, R96H
# B23: 6E7 variant V25 (antibody, V domains shown)
# VH: B1 VH with T30G, I50L
# VL: B1 VL with Q55A, F94M
# Target: T1, human TREM2 (human)
# Assay: 2nd screen, 2 nM Ab
row,Binder,Binding Signal (fold over 6E7 parental antibody) [fold]
1,B1,1.29
2,B2,4.17
3,B3,2.23
4,B4,2.54
5,B5,3.74
6,B6,4.34
7,B7,0.83
8,B8,1.45
9,B9,5.41
10,B10,1.95
11,B11,5.17
12,B12,4.86
13,B13,5.57
14,B14,0.94
15,B15,5.88
16,B16,1.25
17,B17,1.15
18,B18,2.57
19,B19,4.72
20,B20,3.57
21,B21,4.22
22,B22,1.42
23,B23,3.15

# Target: T1, human TREM2 (human)
# Assay: 1st screen, 10 nM Ab
row,Binder,Binding Signal (fold over 6E7 parental antibody) [fold]
1,B1,2.05
2,B2,5.12
3,B3,2.55
4,B4,3.94
5,B5,4.64
6,B6,4.57
7,B7,1.43
8,B8,1.44
9,B9,5.41
10,B10,1.97
11,B11,4.8
12,B12,3.84
13,B13,4.92
14,B14,1.33
15,B15,6
16,B16,2.73
17,B17,1.31
18,B18,4.71
19,B19,5.23
20,B20,4.01
21,B21,5.37
22,B22,2.64
23,B23,4.23

# Target: T1, human TREM2 (human)
# Assay: 2nd screen, 10 nM Ab
row,Binder,Binding Signal (fold over 6E7 parental antibody) [fold]
1,B1,2.75
2,B2,5.44
3,B3,2.9
4,B4,4.01
5,B5,4.52
6,B6,4.93
7,B7,1.38
8,B8,1.62
9,B9,5.37
10,B10,2.24
11,B11,5.02
12,B12,3.93
13,B13,5.3
14,B14,1.46
15,B15,5.51
16,B16,2.84
17,B17,1.35
18,B18,4.64
19,B19,4.78
20,B20,4.04
21,B21,5.51
22,B22,2.9
23,B23,4.7
